The nature of the series: self-splicing fitness, log relative to wild type (ln ratio); higher = more splicing; Tetrahymena group I intron in knt gene, E. coli kanamycin selection, DiMSum; sequences stand for … in CUCUCU…GGAGGGAAAAGUUAUCAGGCAUGCACCUGGUAGCUAGUCUUUAAACCAAUAGAUUGCAUCGGUUUAAAAGGCAAGACCGUCAAAUUGCGGGAAAGGGGUCAACAGCCGUUCAGUACCAAGUCUCAGGGGAAACUUUGAGAUGGCCUUGCAAAGGGUAUGGUAAUAAGCUGACGGACAUGGUCCUAACCACGCAGCCAAGUCCUAAGUCAACAGAUCUUCUGUUGAUAUGGAUGCAGUUCACAGACUAAAUGUCGGUCGGGGAAGAUGUAUUCUUCUCAUAAGAUAUAGUCGGACCUCUCCUUAAUGGGAGCUAGCGGAUGAAGUGAUGCAACACUGGAGCCGCUGGGAACUAAUUUGUAUGCGAAAGUAUAUUGAUUAGUUUUGGAGUACUCGUGGUCG
In short, it runs like this: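 Pooled colonies went to amplicon sequencing on an Illumina HiSeq 2500 after six replicate transformations. The plates were LB agar with 100 μg/mL carbenicillin, 50 μM IPTG and 0.2% rhamnose, with or without 25 μg/mL kanamycin, incubated overnight at 37°C or 30°C. The E. coli BL21(DE3) library had all eight P1ex-region intron nucleotides randomised, the intron placed in the knt kanamycin-resistance gene on pET-22b(+). DiMSum fitness is the error-weighted combination of replicate fold changes, kanamycin against none, normalised to wild type.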

± gives the uncertainty stated by the source.

The source of these data is the supplement of paper PMC7877785.

Consider CGGGAGCAAUAUUACGAGGA, for which the “self-splicing fitness (ln)” value (30 °C) was -4.2 ± 0.39 and the “self-splicing fitness (ln)” value (37 °C) was -2.53 ± 0.28.

Turning to CGGGAGCAAUAUUACGAGGU, the “self-splicing fitness (ln)” value (30 °C) was -4.39 ± 0.39 and the “self-splicing fitness (ln)” value (37 °C) was -2.18 ± 0.31.

In the case of CGGGAGCAAUAUUACGAUCA, the “self-splicing fitness (ln)” value (37 °C) is -1.75 ± 0.43.

For the sequence CGGGAGCAAUAUUACGCACG, the “self-splicing fitness (ln)” value (30 °C) was -1.33 ± 0.31.

On to CGGGAGCAAUAUUACGCUAA, for which the “self-splicing fitness (ln)” value (30 °C) is -2.62 ± 0.43.

For the sequence CGGGAGCAAUAUUACGCUAG, the “self-splicing fitness (ln)” value reads like this: (30 °C) -2.57 ± 0.27; (37 °C) -1.27 ± 0.35.

On to CGGGAGCAAUAUUACGCUCG, for which, where the note is “37 °C”, the “self-splicing fitness (ln)” value was -0.772 ± 0.32.

For CGGGAGCAAUAUUACGGAUG, the “self-splicing fitness (ln)” value reads like this: (30 °C) -3.1 ± 0.23; (37 °C) -2.75 ± 0.26.

For CGGGAGCAAUAUUACGGGCC, the “self-splicing fitness (ln)” value (30 °C) is -1.81 ± 0.21.

For the sequence CGGGAGCAAUAUUACGUCGG, the “self-splicing fitness (ln)” value (30 °C) was -2.52 ± 0.14 and the “self-splicing fitness (ln)” value (37 °C) is -1.66 ± 0.15.

Regarding CGGGAGCAAUAUUACGUCUA, the “self-splicing fitness (ln)” value was -1.89 ± 0.21 (30 °C) and -1.82 ± 0.21 (37 °C).

On to CGGGAGCAAUAUUACGUGGU, for which the “self-splicing fitness (ln)” value is -3.52 ± 0.2 (30 °C) and -2.46 ± 0.19 (37 °C).

Consider CGGUAGCAAUAUUACGAAAU, for which the “self-splicing fitness (ln)” value by setting is: (30 °C) -2.91 ± 0.21; (37 °C) -3.07 ± 0.37.

Turning to CGGUAGCAAUAUUACGACAA, the “self-splicing fitness (ln)” value runs as follows: (30 °C) -2 ± 0.21; (37 °C) 0.305 ± 0.1.

Take CGGUAGCAAUAUUACGACCC: the “self-splicing fitness (ln)” value was 0.488 ± 0.48 (30 °C) and -1.29 ± 0.44 (37 °C).

For CGGUAGCAAUAUUACGACUU, the “self-splicing fitness (ln)” value was -0.479 ± 0.094 (30 °C) and 0.365 ± 0.11 (37 °C).

In the case of CGGUAGCAAUAUUACGAGUA, the “self-splicing fitness (ln)” value (37 °C) is -1.32 ± 0.4.

As for CGGUAGCAAUAUUACGAUGG, the “self-splicing fitness (ln)” value is -0.774 ± 0.1 (30 °C) and 0.646 ± 0.14 (37 °C).

On to CGGUAGCAAUAUUACGCACC, for which the “self-splicing fitness (ln)” value (37 °C) was -0.162 ± 0.39.

As for CGGUAGCAAUAUUACGCAGU, the “self-splicing fitness (ln)” value by setting is: (30 °C) -4.22 ± 0.22; (37 °C) -2.63 ± 0.16.

Turning to CGGUAGCAAUAUUACGCCCU, the “self-splicing fitness (ln)” value is, setting by setting: (30 °C) 0.24 ± 0.19; (37 °C) 0.785 ± 0.29.

Take CGGUAGCAAUAUUACGCUUG: the “self-splicing fitness (ln)” value was -2.07 ± 0.14 (30 °C) and -0.206 ± 0.14 (37 °C).

For CGGUAGCAAUAUUACGGUGU, the “self-splicing fitness (ln)” value (30 °C) is -3.24 ± 0.17 and the “self-splicing fitness (ln)” value (37 °C) is -2.04 ± 0.17.

For CGGUAGCAAUAUUACGUACA, the “self-splicing fitness (ln)” value by setting is: (30 °C) -1.51 ± 0.14; (37 °C) -0.643 ± 0.19.

With CGGUAGCAAUAUUACGUAGG, the “self-splicing fitness (ln)” value reads like this: (30 °C) -0.647 ± 0.051; (37 °C) 0.647 ± 0.08.

As to CGGUAGCAAUAUUACGUCGA, the “self-splicing fitness (ln)” value reads like this: (30 °C) -2.09 ± 0.23; (37 °C) -0.214 ± 0.16.

Regarding CGGUAGCAAUAUUACGUGCG, the “self-splicing fitness (ln)” value reads like this: (30 °C) -1.41 ± 0.12; (37 °C) -0.87 ± 0.12.

With CGGUAGCAAUAUUACGUUAG, the “self-splicing fitness (ln)” value reads like this: (30 °C) 0.11 ± 0.074; (37 °C) 0.0358 ± 0.097.

Take CGUAAGCAAUAUUACGACGU: the “self-splicing fitness (ln)” value (30 °C) is -2.15 ± 0.15 and the “self-splicing fitness (ln)” value (37 °C) is -0.981 ± 0.15.

Consider CGUAAGCAAUAUUACGAGCC, for which, where the note is “37 °C”, the “self-splicing fitness (ln)” value was -1.87 ± 0.22.

Take CGUAAGCAAUAUUACGAGCG: the “self-splicing fitness (ln)” value (30 °C) was -1.02 ± 0.11 and the “self-splicing fitness (ln)” value (37 °C) is -2.67 ± 0.24.

On to CGUAAGCAAUAUUACGAGGC, for which the “self-splicing fitness (ln)” value is, setting by setting: (30 °C) -3.73 ± 0.32; (37 °C) -1.99 ± 0.29.

Consider CGUAAGCAAUAUUACGAUAU, for which the “self-splicing fitness (ln)” value runs as follows: (30 °C) -2.95 ± 0.14; (37 °C) -2.77 ± 0.2.

For CGUAAGCAAUAUUACGAUCA, the “self-splicing fitness (ln)” value runs as follows: (30 °C) -1.17 ± 0.11; (37 °C) -0.755 ± 0.12.

On to CGUAAGCAAUAUUACGAUGA, for which the “self-splicing fitness (ln)” value (30 °C) is -3.44 ± 0.34.

With CGUAAGCAAUAUUACGCACU, the “self-splicing fitness (ln)” value runs as follows: (30 °C) -2.27 ± 0.24; (37 °C) -1.6 ± 0.18.
